US20110065645A1, “Compositions and Methods for Modulating Neuron Degeneration and Neuron Guidance” (The Regents of the University of California, priority 2009, published 2011)
Entries after “also recorded” stand apart in the source; their conditions may differ.

What was measured:
Fzd3-EGFP (mouse) = Fzd3-EGFP (mouse) (UniProt Q61086); assay: cell-based or functional assay
PKA = assay: Western blot of activated phospho-PKA (Thr197) in dissociated commissural neurons; format: cell-based, rat; settings: Shh-N 2.5 μg/ml for one hour; KT5720 25 μM for 15 minutes
Experimental: To confirm that PKA activity can be reduced in commissural neurons exposed to Shh, we treated dissociated spinal cord commissural neurons with Shh and analyzed the level of activated PKA. 24 hr after plating, commissural neurons were serum starved overnight and then treated with 2.5 μg/ml (150 nM) of Shh-N recombinant protein (R&D) for one hour prior to lysate collection. Forskolin (25 μM), and the PKA inhibitor, KT5720 (25 μM) were added to the commissural neuron culture as controls for 15 minutes before lysis. We then tested these lysates for levels of activated PKA with an antibody that specifically recognizes an activated form of the catalytic domain of PKA (phosphorylated at Thr197).
Dissociated commissural neuronal culture. Spinal cords were isolated from rat E13 embryos and commissural neurons were dissociated as previously described.^(8) In brief, embryos were treated with Dispase I (0.25 mg/ml; D4818, Sigma) for 5 minutes prior isolation of spinal cords, followed by collection of spinal cord dorsal domains by microdissection and incubation with Trypsin (1 mg/ml; T47-99, Sigma) for 10-12 min in a 37° C. water bath. The tissue was then triturated with flamed glass pipettes and a single cell suspension was plated on poly-D-lysine (PDL; 20 μg/ml) and laminin (10 μg/ml) coated coverslips or 12 well plates (Corning). More than 90% cells in these cultures express TAG-1, a marker for spinal cord commissural neurons (FIG. 35B). 10^5 dissociated cells were plated on PDL/laminin coated coverslips and cultured for 24 hrs before processed for immunohistochemistry as described above. For Western blot analysis, 10^6 dissociated cells were plated on PDL/laminin coated 12-well tissue culture plates and cultured initially for 24 hrs in dorsal explant media (replenished daily) then changed to low serum medium overnight prior to treatments. […]

Fzd3-mCherry (mouse) = Fzd3-mCherry (mouse) (UniProt Q61086); assay: cell-based or functional assay
Sequence of Fzd3-mCherry (mouse) (Q61086 23-666): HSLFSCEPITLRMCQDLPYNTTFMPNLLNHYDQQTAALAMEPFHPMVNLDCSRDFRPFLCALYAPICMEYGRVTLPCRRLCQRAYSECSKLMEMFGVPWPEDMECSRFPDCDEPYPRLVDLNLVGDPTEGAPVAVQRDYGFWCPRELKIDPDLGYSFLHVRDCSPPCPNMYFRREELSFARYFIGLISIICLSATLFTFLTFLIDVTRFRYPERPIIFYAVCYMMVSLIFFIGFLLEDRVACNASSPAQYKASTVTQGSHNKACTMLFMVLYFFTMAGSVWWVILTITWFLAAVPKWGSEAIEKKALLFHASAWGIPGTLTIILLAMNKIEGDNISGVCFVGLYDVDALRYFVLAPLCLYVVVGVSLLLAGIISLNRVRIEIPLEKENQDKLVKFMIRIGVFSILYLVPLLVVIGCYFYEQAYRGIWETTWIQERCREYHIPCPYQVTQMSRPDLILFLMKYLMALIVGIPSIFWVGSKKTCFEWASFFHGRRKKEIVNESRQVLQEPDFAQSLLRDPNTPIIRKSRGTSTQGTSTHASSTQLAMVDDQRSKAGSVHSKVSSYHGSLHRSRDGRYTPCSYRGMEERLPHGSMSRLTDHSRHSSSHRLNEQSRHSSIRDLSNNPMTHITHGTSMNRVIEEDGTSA

[1] = test system: pre-crossing commissural axons; assay: Precrossing commissural explant assay in collagen gel; format: cell-based, rat; settings: collagen gel containing Netrin-1 and Shh expressing COS-7 cells
Excerpt: Shh activates Semaphorin repulsion in commissural axons. We investigated the mechanisms by which Semaphorin repulsion in commissural axons is switched on during spinal cord midline pathfinding. Commissural neuron cell bodies are located in the dorsal spinal cord and initially extend axons to the ventral midline, the floor plate, in the process of several days (from late E8.9/early E9.5 in mouse and late E10 and E11 in rats till at least E12.5 in mouse and E14 in rat). The commissural axons in the rostral (anterior) spinal cord differentiate and their axons develop earlier than their caudal (posterior) counterparts. At each axis level, the more dorsal populations tend to differentiate and extend axons later than the ventral population in the dorsal spinal cord during this stage of development. […] To quantify these effects, the total length of axons extending towards (proximal) or away (distal) from cell aggregates (FIG. 31B) was calculated in each experiment as the ratio of axons growing proximally (P) divided by axons growing distally (D) (FIG. 31i). […]
Precrossing commissural explant assay. […] For quantification the total length of axon bundle was measured in the proximal (P) and distal (D) quadrants as depicted in FIG. 31B. […]

TH axons = assay: mdDA explant assay with Wnt-expressing cell clumps, anti-TH staining; format: cell-based; settings: embryonic mdDA explants from ventral midbrain
Excerpt: FIG. 7. Multiple Wnts attract TH axons in explant assays. FIG. 7 depicts histogram showing that embryonic mdDA explants dissected out from the ventral midbrain and cultured with cell clumps expressing various Wnts.
3c: Use of explant assays to test the effects of Wnts on mdDA and 5-HT axon growth and guidance. To directly address whether Wnts regulate the guidance of these monoaminergic axons, we use explant assays to test the function of the identified Wnts and determine whether they are attractive or repulsive. […] We plan to continue test additional Wnts especially those which are expressed in the brainstem and the forebrain targets using the same assay.

β-catenin = β-catenin immunostaining in commissural axon growth cones; format: cell-based; settings: bath application; LiCl 2 mM
Excerpt: To understand how atypical PKC/Par pathway regulates axon guidance, we set out to determine the subcellular localization of aPKC, their substrates and downstream cellular effectors. […] Thus, our high-resolution confocal imaging detects a tendency of β-catenin being concentrated to one side of the growth cone (FIG. 9A). It is possible that there is low level of Wnt proteins in the culture (many neurons express Wnts). […] Therefore, it is also possible that intrinsic aPKC signaling can create chirality within the growth cone with out extrinsic signals. Such intrinsic polarity may then robustly regulate cellular morphology upon directional instructions from the environment such as a Wnt gradient. It is well known that GSK3β phosphorylates β-catenin, which then leads to proteosome-mediated degradation of β-catenin. And it is also known that GSK3β is phosphorylated and inhibited by PKCζ^(1,2). Therefore, inhibiting GSK3β or the proteosome activity generally should increase β-catenin level throughout the growth cone, canceling the asymmetry. […] We are now testing the hypothesis that Wnt proteins may locally activate PKCζ, which then inhibits GSK3β and locally stabilizes β-catenin, which is part of the asymmetric cellular mechanism leading to directional choice of a growth cone. We examine the localization of β-catenin in post-crossing commissural axon growth cones in the “post-crossing” assay and “open-book” assays.

Sequence of Fzd3-EGFP (mouse) (Q61086 23-666): as above

recombinant Wnt5a (R&D Systems) (ligand)
commissural axon length after 24 hours on Wnt5a-coated coverslips (Fzd3-EGFP (mouse)): 36%

c1ccc2c(Oc3nc(Nc4ccc(N5CCOCC5)cc4)c4ncn(C5CCCCC5)c4n3)cccc2c1 [Purmorphamine, reference compound]
level of activated PKA (PKA): reduce the level of activated PKA

Dvl1-EGFP (from UniProt P51141 1-695)
Fzd3 level at the cell membrane (surface biotinylation, avidin IP, anti-mCherry IB) in HEK293T cells (Fzd3-mCherry (mouse)): 3 fold

Shh-N: recombinant mouse Sonic Hedgehog, amino-terminal peptide (R&D); also secreted by transfected COS-7 cells
response of pre-crossing commissural axons to Semaphorins [1]: repelled by Sema3B- and Sema3F-secreting cell clumps
level of activated PKA (PKA): reduce the level of activated PKA; also recorded: significant reduction of activated PKA

B1: Wnt7b: Wnt family protein expressed by cell clumps in the TH axon explant assay (protein, UniProt P56706 25-349, looked up)
Protein Wnt-7b: ALSSVVALGANIICNKIPGLAPRQRAICQSRPDAIIVIGEGAQMGINECQYQFRFGRWNCSALGEKTVFGQELRVGSREAAFTYAITAAGVAHAVTAACSQGNLSNCGCDREKQGYYNQAEGWKWGGCSADVRYGIDFSRRFVDAREIKKNARRLMNLHNNEAGRKVLEDRMQLECKCHGVSGSCTTKTCWTTLPKFREVGHLLKEKYNAAVQVEVVRASRLRQPTFLRIKQLRSYQKPMETDLVYIEKSPNYCEEDAATGSVGTQGRLCNRTSPGADGCDTMCCGRGYNTHQYTKVWQCNCKFHWCCFVKCNTCSERTEVFTCK
attraction of TH axons (TH axons): attracts the TH-positive neuron axons

B2: Wnt3a: purified Wnt3a protein; also expressed by cell clumps in explant assays (protein, UniProt P56704 19-352, looked up)
Protein Wnt-3a: SYPIWWSLAVGPQYSSLGSQPILCASIPGLVPKQLRFCRNYVEIMPSVAEGIKIGIQECQHQFRGRRWNCTTVHDSLAIFGPVLDKATRESAFVHAIASAGVAFAVTRSCAEGTAAICGCSSRHQGSPGKGWKWGGCSEDIEFGGMVSREFADARENRPDARSAMNRHNNEAGRQAIASHMHLKCKCHGLSGSCEVKTCWWSQPDFRAIGDFLKDKYDSASEMVVEKHRESRGWVETLRPRYTYFKVPTERDLVYYEASPNFCEPNPETGSFGTRDRTCNVSSHGIDGCDLLCCGRGHNARAERRREKCRCVFHWCCYVSCQECTRVYDVHTCK
attraction of TH axons (TH axons): strongest effect
β-catenin level and asymmetry in the growth cone (β-catenin): increased the levels of β-catenin throughout the growth cone
